According to PMC6625990, “Structural underpinnings of Ric8A function as a G-protein α-subunit chaperone and guanine-nucleotide exchange factor” (Nature Communications, 2019):

B1: bovine Ric8A1–492 [bovine] / Gαt333–350 [modified: biotin on the N-terminus (in the BLI assays); biotin on the N-terminus (in the BLI assays)] [not stated] (parent)
chain 1: MEPRAVADALETGEEDVVMEALRAYNRENSQSFTFDDAQQEDRKRLAKLLVSVLEQGLPPSRRVIWLQSIRILSRDRSCLDSFTSRRSLQALACYAGISASQGSVPEPLNMDVVLESLKCLCNLVLSSPVAQALAAEAGLVVRLAERVGLCRQSSFPHDVQFFDLRLLFLLTALRTDVRQQLFQELQGVRLLTRALELTLGMTEGERHPELLPPQETERAMEILKVLFNITFDSIKREVDEEDAALYRHLGTLLRHCVMLAAAGDRTEELHGHAVNLLGNLPVKCLDVLLTLEPHEGSLEFLGVNMDVIRVLLSFMEKRLHQTHRLKESVAPVLSVLTECARMHRPARKFLKAQVLPPLRDVRTRPEVGELLRNKLVRLMTHLDTDVKRVAAEFLFVLCSESVPRFIKYTGYGNAAGLLAARGLMAGGRPEGQYSEDEDTDTDEYKEAKASINPVTGRVEEKPPNPMEGMTEEQKEHEAMKLVNMFDKLSRH
chain 2: DAVTDIIIKENLKDCGLF

Assays:
[1] = variants of: B1; test: BLI (steady-state); details: with Gαt333–350 [modified: biotin on the N-terminus (in the BLI assays)
[2] = variants of: B1; test: BLI (steady-state binding curve); details: with Gαt333–350 [modified: biotin on the N-terminus (in the BLI assays), biotinylated Gαt333–350 coupled to a streptavidin biosensor

| Kd [1] | Kd [2] | Variant |
| --- | --- | --- |
| 1800 nM | 1900 nM | chain 1 MEPRAVADALETGEEDVVMEALRAYNRENSQSFTFDDAQQEDRKRLAKLLVSVLEQGLPPSRRVIWLQSIRILSRDRSCLDSFTSRRSLQALACYAGISASQGSVPEPLNMDVVLESLKCLCNLVLSSPVAQALAAEAGLVVRLAERVGLCRQSSFPHDVQFFDLRLLRLLTALRTDVRQQLFQELQGVRLLTRALELTLGMTEGERHPELLPPQETERAMEILKVLFNITFDSIKREVDEEDAALYRHLGTLLRHCVMLAAAGDRTEELHGHAVNLLGNLPVKCLDVLLTLEPHEGSLEFLGVNMDVIRVLLSFMEKRLHQTHRLKESVAPVLSVLTECARMHRPARKFLKAQVLPPLRDVRTRPEVGELLRNKLVRLMTHLDTDVKRVAAEFLFVLCSESVPRFIKYTGYGNAAGLLAARGLMAGGRPEGQYSEDEDTDTDEYKEAKASINPVTGRVEEKPPNPMEGMTEEQKEHEAMKLVNMFDKLSRH [chain 1 F169R] |
| > 10000 nM | > 10000 nM | chain 1 MEPRAVADALETGEEDVVMEALRAYNRENSQSFTFDDAQQEDRKRLAKLLVSVLEQGLPPSRRVIWLQSIRILSRDRSCLDSFTSRRSLQALACYAGISASQGSVPEPLNMDVVLESLKCLCNLVLSSPVAQALAAEAGLVVRLAERVGLCRQSSFPHDVQFFDLRLLFLLTWLRTDVRQQLFQELQGVRLLTRALELTLGMTEGERHPELLPPQETERAMEILKVLFNITFDSIKREVDEEDAALYRHLGTLLRHCVMLAAAGDRTEELHGHAVNLLGNLPVKCLDVLLTLEPHEGSLEFLGVNMDVIRVLLSFMEKRLHQTHRLKESVAPVLSVLTECARMHRPARKFLKAQVLPPLRDVRTRPEVGELLRNKLVRLMTHLDTDVKRVAAEFLFVLCSESVPRFIKYTGYGNAAGLLAARGLMAGGRPEGQYSEDEDTDTDEYKEAKASINPVTGRVEEKPPNPMEGMTEEQKEHEAMKLVNMFDKLSRH [chain 1 A173W] |
